Publication PMC2724299 (Nucleic Acids Research, 2009)

Target: the molecule itself
Test: SEC

B1: PAE-EndA linker variant LPEI (6×His-PAE0789 fused through -Leu-Pro-Glu-Ile- to PAE2269) (enzyme, Pyrobaculum aerophilum)
chain: MDVLQEQVFKDLKSRGFKIIEQLDDKIFIAEKKERYLFYVMVEGVEVTIQTLLSVINMGETLSMPVVLALVSNDGTVTYYYVRKIRLPRNIYAEAVLPEIMIGYLRGLAVIVEDVEFARRLYKEGFYGRFLGYDKVKRDEVEKINAPLILGLYEALYLAEKGRLKVMGEDGREVAPEELAALGRERMRNFDEIYKIYKYFRDLGYVVKSGLKFGALFSVYEKGPGIDHAPMVVVFLEPDKGISATDITRGGRLSHSVRKTWTLATVLRQTGEVVLLGFGWARL
- stoichiometry N: 2
